Key:
[1] = target: collapsin response mediator protein-2, intact (rat), P47942
[2] = target: T1, synaptotagmin-1, intact 65 kDa protein (rat), P21707
T1 chain: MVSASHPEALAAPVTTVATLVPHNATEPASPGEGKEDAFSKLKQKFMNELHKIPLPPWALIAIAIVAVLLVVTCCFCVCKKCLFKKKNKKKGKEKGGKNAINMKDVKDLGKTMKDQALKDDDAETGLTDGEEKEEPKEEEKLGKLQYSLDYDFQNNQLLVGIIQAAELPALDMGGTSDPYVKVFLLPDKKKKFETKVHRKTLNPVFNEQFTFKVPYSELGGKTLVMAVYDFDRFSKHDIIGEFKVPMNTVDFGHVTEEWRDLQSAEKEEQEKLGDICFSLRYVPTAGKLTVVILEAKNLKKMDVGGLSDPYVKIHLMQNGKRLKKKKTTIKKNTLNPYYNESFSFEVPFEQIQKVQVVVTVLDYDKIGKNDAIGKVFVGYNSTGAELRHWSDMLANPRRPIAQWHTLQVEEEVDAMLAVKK

[3] = target: CRMP-2 C-terminal 53-mer (500-552) synthetic peptide, Q16555

B1: recombinant human caspase-3 (Chemicon) (protein)
chain: SGISLDNSYKMDYPEMGLCIIINNKNFHKSTGMTSRSGTDVDAANLRETFRNLKYEVRNKNDLTREEIVELMRDVSKEDHSKRSSFVCVLLSHGEEGIIFGTNGPVDLKKITNFFRGDRCRSLTGKPKLFIIQACRGTELDCGIETDSGVDDDMACHKIPVEADFLYAYSTAPGYYSWRNSKDGSWFIQSLCAMLKQYADKLEFMHILTRVNRKVATEFESFSFDATFHAKKQIPCIVSMLTKELYFYH
[1]
  in vitro protease digestion of naive brain lysate, Western blot: caspase-3 treatment did not produce the 55 kDa BDP
[2]
  in vitro protease digestion of lysate, Western blot: Syt1 was resistant to caspase-3 in the same samples

B2: human calpain-2 (Calbiochem, Cat#208715) (protein)
chain: AGIAAKLAKDREAAEGLGSHDRAIKYLNQDYEALRNECLEAGTLFQDPSFPAIPSALGFKELGPYSSKTRGIEWKRPTEICADPQFIIGGATRTDICQGALGDCWLLAAIASLTLNEEILARVVPLNQSFQENYAGIFHFQFWQYGEWVEVVVDDRLPTKDGELLFVHSAEGSEFWSALLEKAYAKINGCYEALSGGATTEGFEDFTGGIAEWYELKKPPPNLFKIIQKALQKGSLLGCSIDITSAADSEAITFQKLVKGHAYSVTGAEEVESNGSLQKLIRIRNPWGEVEWTGRWNDNCPSWNTIDPEERERLTRRHEDGEFWMSFSDFLRHYSRLEICNLTPDTLTSDTYKKWKLTKMDGNWRRGSTAGGCRNYPNTFWMNPQYLIKLEEEDEDEEDGESGCTFLVGLIQKHRRRQRKMGEDMHTIGFGIYEVPEELSGQTNIHLSKNFFLTNRARERSDTFINLREVLNRFKLPPGEYILVPSTFEPNKDGDFCIRVFSEKKADYQAVDDEIEANLEEFDISEDDIDDGFRRLFAQLAGEDAEISAFELQTILRRVLAKRQDIKSDGFSIETCKIMVDMLDSDGSGKLGLKEFYILWTKIQKYQKIYREIDVDRSGTMNSYEMRKALEEAGFKMPCQLHQVIVARFADDQLIIDFDNFVRCLVRLETLFKIFKQLDPENTGTIELDLISWLCFSVL
[2]
  in vitro protease digestion of lysate, Western blot: Syt1-blot also showed a calpain-concentration-dependent reduction of intact Syt1. Calpain treatment also produced a BDP identical to the 33 Syt1-fragment produced following TBI.

B3: human erythrocyte calpain-1 (protein)
chain: SEEIITPVYCTGVSAQVQKQRARELGLGRHENAIKYLGQDYEQLRVRCLQSGTLFRDEAFPPVPQSLGYKDLGPNSSKTYGIKWKRPTELLSNPQFIVDGATRTDICQGALGDCWLLAAIASLTLNDTLLHRVVPHGQSFQNGYAGIFHFQLWQFGEWVDVVVDDLLPIKDGKLVFVHSAEGNEFWSALLEKAYAKVNGSYEALSGGSTSEGFEDFTGGVTEWYELRKAPSDLYQIILKALERGSLLGCSIDISSVLDMEAITFKKLVKGHAYSVTGAKQVNYRGQVVSLIRMRNPWGEVEWTGAWSDSSSEWNNVDPYERDQLRVKMEDGEFWMSFRDFMREFTRLEICNLTPDALKSRTIRKWNTTLYEGTWRRGSTAGGCRNYPATFWVNPQFKIRLDETDDPDDYGDRESGCSFVLALMQKHRRRERRFGRDMETIGFAVYEVPPELVGQPAVHLKRDFFLANASRARSEQFINLREVSTRFRLPPGEYVVVPSTFEPNKEGDFVLRFFSEKSAGTVELDDQIQANLPDEQVLSEEEIDENFKALFRQLAGEDMEISVKELRTILNRIISKHKDLRTKGFSLESCRSMVNLMDRDGNGKLGLVEFNILWNRIRNYLSIFRKFDLDKSGSMSAYEMRMAIESAGFKLNKKLYELIITRYSEPDLAVDFDNFVCCLVRLETMFRFFKTLDTDLDGVVTFDLFKWLQLTMFA
[2]
  in vitro protease digestion of lysate, Western blot: Digestion with calpain-1 showed identical results (data not shown).

B4: rat recombinant calpain-2 (Calbiochem) (protein)
chain: MAGIAMKLAKDREAAEGLGSHERAIKYLNQDYETLRNECLEAGALFQDPSFPALPSSLGFKELGPYSSKTRGIEWKRPTEICADPQFIIGGATRTDICQGALGDCWLLAAIASLTLNEEILARVVPLDQSFQENYAGIFHFQFWQYGEWVEVVVDDRLPTKDGELLFVHSAEGSEFWSALLEKAYAKINGCYEALSGGATTEGFEDFTGGIAEWYELRKPPPNLFKIIQKALEKGSLLGCSIDITSAADSEAVTYQKLVKGHAYSVTGAEEVESSGSLQKLIRIRNPWGQVEWTGKWNDNCPSWNTVDPEVRANLTERQEDGEFWMSFSDFLRHYSRLEICNLTPDTLTCDSYKKWKLTKMDGNWRRGSTAGGCRNYPNTFWMNPQYLIKLEEEDEDDEDGERGCTFLVGLIQKHRRRQRKMGEDMHTIGFGIYEVPEELTGQTNIHLSKNFFLTTRARERSDTFINLREVLNRFKLPPGEYVLVPSTFEPHKNGDFCIRVFSEKKADYQTVDDEIEANIEEIEANEEDIGDGFRRLFAQLAGEDAEISAFELQTILRRVLAKREDIKSDGFSIETCKIMVDMLDEDGSGKLGLKEFYILWTKIQKYQKIYREIDVDRSGTMNSYEMRKALEEAGFKLPCQLHQVIVARFADDELIIDFDNFVRCLVRLEILFKIFKQLDPENTGTIQLDLISWLSFSVL
[3]
  in vitro digestion of the synthetic peptide, Coomassie gel and N-terminal microsequencing: Purified CRMP-2 C-terminal 53-mer (500-552) peptide was synthesized and digested by rat calpain-2.

Reference: patent publication US20120196307
